We go through 16 substances from patent US10221225B2, “Peptides and combination of peptides and scaffolds thereof for use in immunotherapy against colorectal carcinoma (CRC) and other cancers” (immatics biotechnologies GmbH, priority 2015, dated 2019).

Assay [1] addresses HLA-A*02:01 (Homo sapiens, UniProt P04439, D140Y/D185E/D98H/E176V/E277Q/G131W/G231S/I119V/I121R/I166T/I218V/L300P/L318F/N151K/N90K/P208A/P217A/Q86G/Q94H/R138H/R169H/T345S). Briefly: MHC binding assay (UV-ligand exchange, beta2m ELISA, peptide exchange yield). The conditions noted are these: MHC class I binding score; binding to HLA-A*02:01 ranged by peptide exchange yield (UV-ligand exchange, β2m ELISA). A digest of the protocol: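 Exchange yield, UV-ligand exchange: 100-fold diluted samples on streptavidin plates, 1 h at 37 °C; HRP anti-β2m 1 h at 37 °C; TMB read at 450 nm.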
On the technique in general: ELISA stands for enzyme-linked immunosorbent assay.

In assay [2] the test system is CD8+ T-cells. Briefly: In vitro T-cell priming assay with aAPCs loaded with peptide/MHC and anti-CD28, pMHC multimer readout. It is filed as cell-based, human. The conditions noted are these: in vitro immunogenicity, HLA-A*02 restricted peptides. The source says:
In order to obtain information regarding the immunogenicity of the TUMAPs of the present invention, the inventors performed investigations using an in vitro T-cell priming assay based on repeated stimulations of CD8+ T-cells with artificial antigen presenting cells (aAPCs) loaded with peptide/MHC complexes and anti-CD28 antibody.
In order to perform in vitro stimulations by artificial antigen presenting cells loaded with peptide-MHC complex (pMHC) and anti-CD28 antibody, the inventors first isolated CD8+ T-cells from fresh HLA-A*02 leukopheresis products via positive selection using CD8 microbeads (Miltenyi Biotec, Bergisch-Gladbach, Germany) of healthy donors obtained from the University clinics Mannheim, Germany, after informed consent.
PBMCs and isolated CD8+ lymphocytes were incubated in T-cell medium (TCM) until use consisting of RPMI-Glutamax (Invitrogen, Karlsruhe, Germany) supplemented with 10% heat inactivated human AB serum (PAN-Biotech, Aidenbach, Germany), 100 U/ml Penicillin/100 μg/ml Streptomycin (Cambrex, Cologne, Germany), 1 mM sodium pyruvate (CC Pro, Oberdorla, Germany), 20 μg/ml Gentamycin (Cambrex). 2.5 ng/ml IL-7 (PromoCell, Heidelberg, Germany) and 10 U/ml IL-2 (Novartis Pharma, Nürnberg, Germany) were also added to the TCM at this step.
Generation of pMHC/anti-CD28 coated beads, T-cell stimulations and readout was performed in a highly defined in vitro system using four different pMHC molecules per stimulation condition and 8 different pMHC molecules per readout condition.
The purified co-stimulatory mouse IgG2a anti human CD28 Ab 9.3 (Jung et al., 1987) was chemically biotinylated using Sulfo-N-hydroxysuccinimidobiotin as recommended by the manufacturer (Perbio, Bonn, Germany). Beads used were 5.6 μm diameter streptavidin coated polystyrene particles (Bangs Laboratories, Illinois, USA).
800,000 beads/200 μl were coated in 96-well plates in the presence of 4×12.5 ng different biotin-pMHC, washed and 600 ng biotin anti-CD28 were added subsequently in a volume of 200 μl. Stimulations were initiated in 96-well plates by co-incubating 1×10^6 CD8+ T-cells with 2×10^5 washed coated beads in 200 μl TCM supplemented with 5 ng/ml IL-12 (PromoCell) for 3 days at 37° C. Half of the medium was then exchanged by fresh TCM supplemented with 80 U/ml IL-2 and incubating was continued for 4 days at 37° C. This stimulation cycle was performed for a total of three times. For the pMHC multimer readout using 8 different pMHC molecules per condition, a two-dimensional combinatorial coding approach was used as previously described (Andersen et al., 2012) with minor modifications encompassing coupling to 5 different fluorochromes. Finally, multimeric analyses were performed by staining the cells with Live/dead near IR dye (Invitrogen, Karlsruhe, Germany), CD8-FITC antibody clone SK1 (BD, Heidelberg, Germany) and fluorescent pMHC multimers. For analysis, a BD LSRII SORP cytometer equipped with appropriate lasers and filters was used. Peptide specific cells were calculated as percentage of total CD8+ cells. Evaluation of multimeric analysis was done using the FlowJo software (Tree Star, Oregon, USA). In vitro priming of specific multimer+ CD8+ lymphocytes was detected by comparing to negative control stimulations.

As for “21 (VLIDHRWVL; listed as Homo sapiens) [compound 21]”, the Peptide exchange entry in assay [1] is reported as “″+++″ (≥50 = +++)”. The Wells positive result in assay [2] is listed as “″+″ (<20% = +)”.

With “123 (KTLERSYLL; listed as Homo sapiens) [compound 123]”, in assay [1], the Peptide exchange result was “″++″ (≥20% = ++)”. For the same substance, in assay [2], the Wells positive entry is given as “″+″ (<20% = +)”.

Take “132 (ALLNAILHSA; listed as Homo sapiens) [compound 132]”: the Peptide exchange result in assay [1] is “″++″ (≥20% = ++)”. Besides, the Wells positive entry in assay [2] was “″+″ (<20% = +)”.

Regarding “5 (WLFDDGGLTL; listed as Homo sapiens) [compound 5]”, in assay [1], the Peptide exchange entry is recorded as “″++++″ (≥75% = ++++)”. Besides, in assay [2], the Wells positive result is “″++″ (20%-49% = ++)”.

For “127 (RLAELTVDEFLA; listed as Homo sapiens) [compound 127]”, the Peptide exchange result in assay [1] is “″+++″ (≥50 = +++)”. The Wells positive result in assay [2] is given as “″+″ (<20% = +)”.

With “7 (YLTRHLAVL; listed as Homo sapiens) [compound 7]”, the Peptide exchange entry in assay [1] is listed as “″++″ (≥20% = ++)”. The Wells positive result in assay [2] is listed as “″+″ (<20% = +)”.

“3 (RLIPDTLYSV; listed as Homo sapiens) [compound 3]”: in assay [1], the Peptide exchange result is recorded as “″++++″ (≥75% = ++++)”. Moreover, in assay [2], the Wells positive entry is listed as “″+++″ (50%-69% = +++)”.

Regarding “142 (SLVQRVETI; listed as Homo sapiens) [compound 142]”, in assay [1], the Peptide exchange result is “″+++″ (≥50 = +++)”. In addition, the Wells positive result in assay [2] is “″+″ (<20% = +)”.

Turning to “37 (GLFAGLGGAGA; listed as Homo sapiens) [compound 37]”, in assay [1], the Peptide exchange entry is on record as “″+++″ (≥50 = +++)”. Besides, the Wells positive result in assay [2] was “″+″ (<20% = +)”.

Consider “10 (RMYNKIFAI; listed as Homo sapiens) [compound 10]”, for which the Peptide exchange result in assay [1] is reported as “″+++″ (≥50 = +++)”. In addition, the Wells positive result in assay [2] is reported as “″++++″ (>= 70% = ++++)”.

On to “64 (KTLGKLWRL; listed as Homo sapiens) [compound 64]”, for which the Peptide exchange result in assay [1] is given as “″++″ (≥20% = ++)”. Also, the Wells positive entry in assay [2] was “″++++″ (>= 70% = ++++)”.

As to “47 (KLYERCEVV; listed as Homo sapiens) [compound 47]”, in assay [1], the Peptide exchange result is recorded as “″++″ (≥20% = ++)”. For the same substance, the Wells positive entry in assay [2] is listed as “″+″ (<20% = +)”.

For “136 (KLFDIFSQQV; listed as Homo sapiens) [compound 136]”, in assay [1], the Peptide exchange result was “″+++″ (≥50 = +++)”. Also, the Wells positive result in assay [2] is reported as “″++″ (20%-49% = ++)”.

Consider “32 (KLNTETFGV; listed as Homo sapiens) [compound 32]”, for which, in assay [1], the Peptide exchange result is “″++″ (≥20% = ++)”. In addition, in assay [2], the Wells positive result is given as “″++″ (20%-49% = ++)”.

With “12 (ALVQGILERV; listed as Homo sapiens) [compound 12]”, the Peptide exchange result in assay [1] is given as “″+++″ (≥50 = +++)”. Also, the Wells positive result in assay [2] is “″++++″ (>= 70% = ++++)”.

Take “17 (ALAAARVEL; listed as Homo sapiens) [compound 17]”: the Peptide exchange result in assay [1] is “″+++″ (≥50 = +++)”. The Wells positive result in assay [2] is given as “″++″ (20%-49% = ++)”.
